From paper PMC11417369, “DNA sequence and chromatin differentiate sequence-specific transcription factor binding in the human malaria parasite Plasmodium falciparum”

T1: SIP2 D1 (Plasmodium falciparum, UniProt C6KSN9 177-235)
T1 sequence: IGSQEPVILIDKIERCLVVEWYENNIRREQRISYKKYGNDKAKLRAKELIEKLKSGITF


Molecular target: T1, SIP2 D1
Experiment: gcPBM; about 25 ug protein; PBS, 1% milk, 0.2 mg/ml BSA, salmon testes DNA, 0.03% Triton X-100
Conditions: tags: N-terminal GST (pGEX-4T-1), kept; label: surface-attached array probe

Binder | binding signal
GTGCAC_site10198 (dsDNA) DNA 1: TTTTTAACGTATAAGGTGCACTGTATATGGTACTCA DNA 2: TGAGTACCATATACAGTGCACCTTATACGTTAAAAA | 11.5 ln median PBM intensity, better of two orientations
GTGCAC_site10264 (dsDNA) DNA 1: TTATTTATTTATTGGGTGCACTTGATTTAAATATGC DNA 2: GCATATTTAAATCAAGTGCACCCAATAAATAAATAA | 11.8 ln median PBM intensity, better of two orientations
GTGCAC_site9600 (dsDNA) DNA 1: AACCTTACACAAGGGGTGCAATATTATTTCGATAAA DNA 2: TTTATCGAAATAATATTGCACCCCTTGTGTAAGGTT | 11.5 ln median PBM intensity, better of two orientations
GTGCAC_site9853 (dsDNA) DNA 1: ACTATTTAATATAGGGTGCAACTTTTTCAAGTAAAT DNA 2: ATTTACTTGAAAAAGTTGCACCCTATATTAAATAGT | 11.5 ln median PBM intensity, better of two orientations
GTGCAC_site9760 (dsDNA) DNA 1: ATAATTATTCTTATGGTGCACTGAATATACATGTTG DNA 2: CAACATGTATATTCAGTGCACCATAAGAATAATTAT | 11 ln median PBM intensity, better of two orientations
GTGCAC_site10679 (dsDNA) DNA 1: AGCATATTATTTTAGGTGCACTTGAAATGTGTTAAC DNA 2: GTTAACACATTTCAAGTGCACCTAAAATAATATGCT | 11.5 ln median PBM intensity, better of two orientations
GTGCAC_site10403 (dsDNA) DNA 1: CTGTAAAATGTGATGGTGCATATTAATTTAGTTGTA DNA 2: TACAACTAAATTAATATGCACCATCACATTTTACAG | 10.8 ln median PBM intensity, better of two orientations
GTGCAC_site9881 (dsDNA) DNA 1: TCCGCATGTACATGGGTGCACATAACACCCATTTAA DNA 2: TTAAATGGGTGTTATGTGCACCCATGTACATGCGGA | 11.6 ln median PBM intensity, better of two orientations
GTGCAC_site9503 (dsDNA) DNA 1: ATCTATTTGTAAAGGGTGCGCATATCAATAAAAAAT DNA 2: ATTTTTTATTGATATGCGCACCCTTTACAAATAGAT | 11.6 ln median PBM intensity, better of two orientations
GTGCAC_site9862 (dsDNA) DNA 1: ACACATACACATTAGGTGCACATAATTCAATATTAC DNA 2: GTAATATTGAATTATGTGCACCTAATGTGTATGTGT | 11.3 ln median PBM intensity, better of two orientations
GTGCAC_site10518 (dsDNA) DNA 1: ATATATTTCAAAGGGGTGCAGGCATATTTAAGCAAA DNA 2: TTTGCTTAAATATGCCTGCACCCCTTTGAAATATAT | 11.6 ln median PBM intensity, better of two orientations
GTGCAC_site10674 (dsDNA) DNA 1: AAAAAAAAAAAAAAGGTGCAAATAAATTAACCTTAT DNA 2: ATAAGGTTAATTTATTTGCACCTTTTTTTTTTTTTT | 11.4 ln median PBM intensity, better of two orientations
GTGCAC_site10229 (dsDNA) DNA 1: CACATTAATTTTTGGGTGCACTTGGGAAATTTTGGT DNA 2: ACCAAAATTTCCCAAGTGCACCCAAAAATTAATGTG | 11.6 ln median PBM intensity, better of two orientations
GTGCAC_site10328 (dsDNA) DNA 1: AAATTCTGCATCGAGGTGCGCCATAAAAATTGTGGT DNA 2: ACCACAATTTTTATGGCGCACCTCGATGCAGAATTT | 10.9 ln median PBM intensity, better of two orientations
GTGCAC_site10740 (dsDNA) DNA 1: AAAAATTAACAAAAGGTGCAATTTATTTATTAACGG DNA 2: CCGTTAATAAATAAATTGCACCTTTTGTTAATTTTT | 10.9 ln median PBM intensity, better of two orientations
GTGCAC_site10577 (dsDNA) DNA 1: TTTTTTTTCTATGTGGTGCACATTATTTTTTTTTTT DNA 2: AAAAAAAAAAATAATGTGCACCACATAGAAAAAAAA | 11.4 ln median PBM intensity, better of two orientations
GTGCAC_site10574 (dsDNA) DNA 1: AATTAATGGCTAAAGGTGCACAATATATATATTACA DNA 2: TGTAATATATATATTGTGCACCTTTAGCCATTAATT | 11.7 ln median PBM intensity, better of two orientations
GTGCAC_site9943 (dsDNA) DNA 1: AATTAATGGTTAAAGGTGCACAATACATATATTACA DNA 2: TGTAATATATGTATTGTGCACCTTTAACCATTAATT | 11.6 ln median PBM intensity, better of two orientations
GTGCAC_site9895 (dsDNA) DNA 1: ATTGAATTCCAACTGGTGCACCAGTAAGATTGAAAA DNA 2: TTTTCAATCTTACTGGTGCACCAGTTGGAATTCAAT | 11.6 ln median PBM intensity, better of two orientations
GTGCAC_site9950 (dsDNA) DNA 1: AAAAAAAAAAAAATGGTGCAACTTTGTTAAAGGAAA DNA 2: TTTCCTTTAACAAAGTTGCACCATTTTTTTTTTTTT | 11.6 ln median PBM intensity, better of two orientations
GTGCAC_site10759 (dsDNA) DNA 1: ATTAAATTTCCTTGAGTGCACATTTTGTTAAAATAT DNA 2: ATATTTTAACAAAATGTGCACTCAAGGAAATTTAAT | 10.7 ln median PBM intensity, better of two orientations
GTGCAC_site10767 (dsDNA) DNA 1: TGTTTTATTTAGAAGGTGCACATTAATATTAAATAA DNA 2: TTATTTAATATTAATGTGCACCTTCTAAATAAAACA | 11.8 ln median PBM intensity, better of two orientations

Binder | binding signal
GTGCAC_site10597 (dsDNA) DNA 1: TGAACTCAACAAAGGGTGCATAACAAAAATAGACGT DNA 2: ACGTCTATTTTTGTTATGCACCCTTTGTTGAGTTCA | 11.6 ln median PBM intensity, better of two orientations
GTGCAC_site10015 (dsDNA) DNA 1: TATAATGGTTCTGGTGTGCACCATGACAGAATCAAG DNA 2: CTTGATTCTGTCATGGTGCACACCAGAACCATTATA | 11.4 ln median PBM intensity, better of two orientations
GTGCAC_site10082 (dsDNA) DNA 1: ATAATAACTTGTAAGGTGCATTTTATGTTTTCTTAA DNA 2: TTAAGAAAACATAAAATGCACCTTACAAGTTATTAT | 10.8 ln median PBM intensity, better of two orientations
GTGCAC_site9733 (dsDNA) DNA 1: TAAAAATTAAAAAGGGTGCAAAAAAAAAAAAAAAAA DNA 2: TTTTTTTTTTTTTTTTTGCACCCTTTTTAATTTTTA | 11.6 ln median PBM intensity, better of two orientations
GTGCAC_site10066 (dsDNA) DNA 1: TAAACATATAGAGGGGTGCAAAGAATTGTAAAATTT DNA 2: AAATTTTACAATTCTTTGCACCCCTCTATATGTTTA | 10.8 ln median PBM intensity, better of two orientations
GTGCAC_site9525 (dsDNA) DNA 1: CTGCGTTTAATATGCGTGCACCTTGGTTTTATATCT DNA 2: AGATATAAAACCAAGGTGCACGCATATTAAACGCAG | 11.3 ln median PBM intensity, better of two orientations
GTGCAC_site10448 (dsDNA) DNA 1: TATTAATTTAAATGGGTGCAAAACCTATATAAATAT DNA 2: ATATTTATATAGGTTTTGCACCCATTTAAATTAATA | 11.1 ln median PBM intensity, better of two orientations
GTGCAC_site9532 (dsDNA) DNA 1: ATATATATATTAAAGGTGCACAAATAAATATATACA DNA 2: TGTATATATTTATTTGTGCACCTTTAATATATATAT | 11.3 ln median PBM intensity, better of two orientations
GTGCAC_site10454 (dsDNA) DNA 1: TTTTTAATATATTAGGTGCACAATAATACACTTTAT DNA 2: ATAAAGTGTATTATTGTGCACCTAATATATTAAAAA | 11.3 ln median PBM intensity, better of two orientations
GTGCAC_site9513 (dsDNA) DNA 1: TATATATGTATATGTGTGCACCTTATTTCTTTTATT DNA 2: AATAAAAGAAATAAGGTGCACACATATACATATATA | 11.7 ln median PBM intensity, better of two orientations
GTGCAC_site10039 (dsDNA) DNA 1: CAGTAGTTTTTATGGGTGCAAAACATATATATAACA DNA 2: TGTTATATATATGTTTTGCACCCATAAAAACTACTG | 11.3 ln median PBM intensity, better of two orientations
GTGCAC_site10495 (dsDNA) DNA 1: ATATATATAATATAGGTGCACTACTTATTTAAAAAA DNA 2: TTTTTTAAATAAGTAGTGCACCTATATTATATATAT | 11.7 ln median PBM intensity, better of two orientations
GTGCAC_site10429 (dsDNA) DNA 1: TATAAGTGCTCAACGGTGCATTTATAGAAGTTAAAC DNA 2: GTTTAACTTCTATAAATGCACCGTTGAGCACTTATA | 10.8 ln median PBM intensity, better of two orientations
GTGCAC_site10641 (dsDNA) DNA 1: ATATAATAACAAAAGGTGCGCATTAAGACAAAAAAA DNA 2: TTTTTTTGTCTTAATGCGCACCTTTTGTTATTATAT | 11.5 ln median PBM intensity, better of two orientations
GTGCAC_site10727 (dsDNA) DNA 1: ATAGAAGGCAACTTGGTGCACAAAAAAAAAAATAAT DNA 2: ATTATTTTTTTTTTTGTGCACCAAGTTGCCTTCTAT | 11.4 ln median PBM intensity, better of two orientations
GTGCAC_site9660 (dsDNA) DNA 1: CTTTTTTTTTTGGGGGTGCATGCAAGACATATATTT DNA 2: AAATATATGTCTTGCATGCACCCCCAAAAAAAAAAG | 11.5 ln median PBM intensity, better of two orientations
GTGCAC_site10197 (dsDNA) DNA 1: TCCATATGCAAACTGGTGCACAAGTAGCTTTTATAT DNA 2: ATATAAAAGCTACTTGTGCACCAGTTTGCATATGGA | 11 ln median PBM intensity, better of two orientations
GTGCAC_site10519 (dsDNA) DNA 1: CATGCCTTTAAAAAGGTGCAAACATTTTCACAAACA DNA 2: TGTTTGTGAAAATGTTTGCACCTTTTTAAAGGCATG | 11.4 ln median PBM intensity, better of two orientations
GTGCAC_site9650 (dsDNA) DNA 1: CAATTTGGTGTACAGGTGCACATGCCTCACGATAAA DNA 2: TTTATCGTGAGGCATGTGCACCTGTACACCAAATTG | 11.3 ln median PBM intensity, better of two orientations
GTGCAC_site10200 (dsDNA) DNA 1: CTCATTTTTGTACAGGTGCACTTATCGTTACACTAT DNA 2: ATAGTGTAACGATAAGTGCACCTGTACAAAAATGAG | 11.5 ln median PBM intensity, better of two orientations
GTGCAC_site9401 (dsDNA) DNA 1: AAAAAAAAAAAAAAGGTGCATACTTTGAATTAATAT DNA 2: ATATTAATTCAAAGTATGCACCTTTTTTTTTTTTTT | 11.7 ln median PBM intensity, better of two orientations
GTGCAC_site9754 (dsDNA) DNA 1: ATATAATATTTTAGAGTGCACCGATAACAATAAATA DNA 2: TATTTATTGTTATCGGTGCACTCTAAAATATTATAT | 11.4 ln median PBM intensity, better of two orientations
